Patent US20080261241A1, “Targeted ubiquitination of proteins and screening methods using a new class of ubiquitin ligase proteins” (INSTITUT PASTEUR, priority 2007, published 2008)

Columns and labels:
[1] = target: T1, PKN1 (Homo sapiens, UniProt Q16512); assay: In vitro ubiquitination of PKN1; format: biochemical, mammalian; settings: GST-PKN1, E1, native ubiquitin, UbcH5B; anti-PKN1 antibodies
T1 construct: purchased Invitrogen
Procedure: To test whether SspH1 shares activities with IpaH9.8, a GST-SspH1 recombinant protein was purified. […] Ubiquitination of PKN1 by SspH1; SspH1, IpaH9.8, or IpaH9.8-C337A was incubated with E1, native ubiquitin, UbcH5B, and GST-PKN1 was tested.
(§1) Reactions were incubated at 37° C. for 1 h and stopped by the addition of an equal volume of Laemmli sample buffer (62.5 mM Tris-Hcl, pH 6.8, 10% glycerol, 2% SDS, 0.0005% bromophenol blue) containing, or not, 100 mM DTT. Ubiquitination reactions were carried out in the same manner except that 2 μg of HA-tagged ubiquitin, ubiquitin, ubiquitin-48R or […] were used instead of biotinylated ubiquitin. […] Reaction mixtures were separated by SDS/PAGE, transferred onto a nitrocellulose membrane and probed with specific antibodies or peroxidase-coupled streptavidin when biotinylated ubiquitin was used.

[2] = system: pheromone response MAPK pathway; assay: Halo assay with α-factor disk; format: cell-based, Saccharomyces cerevisiae; settings: wild-type yeast, exposure to α-factor
Excerpt: (§2) To gain insight to IpaH9.8 activity, Saccharomyces cerevisiae was employed as a surrogate model. […] Detection of mating pheromone by a G protein-coupled receptor activates an archetypal MAPK signalling cascade, inducing both arrest of the cell cycle and transcription of mating genes. The pheromone α-factor diffusing from a disk causes cell cycle arrest in […] cells, resulting in a halo of inhibited growth (Hoffman et al., 2002).
Standard media and techniques were used for transformation, maintenance, and growth of yeast (Guthrie C, 1991). Halo assays were performed as described (Hoffman et al., 2002) using disks impregnated with 15 μg of α-factor. erg6 ? yeast were transformed with plasmids encoding IpaH9.8 or IpaH9.8-C337A and grown in selective media containing 1% raffinose to mid log phase. Following addition of MG132 (100 μM) and galactose (2%), cultures were incubated for 2 h and cell extracts were prepared as described (Wang et al., 2003). β-Galactosidase assays were performed as described (Guarente, 1983).

[3] = system: pheromone response MAPK pathway; assay: Pheromone-responsive FUS1-lacZ reporter (β-galactosidase); format: cell-based, Saccharomyces cerevisiae; settings: wild-type yeast, exposure to α-factor
Excerpt: as §2
Invasive wild-type Shigella flexneri 5 M90T-Sm (Allaoui et al., 1992) and its mxiE derivative SF1060 (Mavris et al., 2002) were used for infection. Plasmids were propagated in Escherichia coli DH5α (end A1 hsdR17 sup E44 thi1 recA1 gyrA relA1 lacZYA-argF). To create JRY101, the integrating plasmid pFC23 (O'Rourke and Herskowitz, 1998) containing a FUS-lacZ transcriptional fusion was digested with SphI and transformed into BY4741; Leu+ colonies were tested for pheromone-responsive β-galactosidase production. JRY100 was constructed by PCR-mediated gene disruption in strain BY4741, replacing the entire open reading frame of UBP3 by the Nat marker, as described (Goldstein and McCusker, 1999; Longtine et al., 1998); the gene replacement was confirmed by PCR.
Standard media and techniques were used for transformation, maintenance, and growth of yeast (Guthrie C, 1991). […]

[4] = system: pheromone response pathway downstream of Ste4; assay: Growth arrest by overproduction of Ste4; format: cell-based, Saccharomyces cerevisiae
[5] = system: pheromone response pathway at or downstream of Ste11; assay: FUS1-HIS3 reporter growth of strain SY2625 with Ste11-4; format: cell-based, Saccharomyces cerevisiae; settings: SY2625 with plasmid encoding Ste11-4; medium lacking histidine with 3-amino triazole
Excerpt: To identify the target of IpaH9.8, yeast strains were used that were altered in the signalling cascade. […] The constitutively active variant of the MAPKKK Ste11 encoded by the allele STE11-4 promotes elevated transcription of pheromone responsive genes, even in the absence of pheromone (Stevenson et al., 1992). Growth of the strain SY2625 harbouring a FUS1-HIS3 pheromone-inducible reporter is dependent on signalling through the pheromone response pathway on a medium lacking histidine and containing 3-amino triazole (Evangelista et al., 1997). SY2625 containing a plasmid encoding Ste11-4, but not those containing the vector, were His^+, consistent with activation of the pathway by Ste11-4 and transcription of FUS1-HIS3. […] Upon phosphorylation by Ste11, Ste7 is ubiquitinated and, following removal of ubiquitin chains by the specific deubiquitinase Ubp3, is degraded by the proteasome (Wang et al., 2003).

[6] = system: MAPKK Ste7; assay: Immunoblot of Ste7 amount in yeast; format: cell-based, Saccharomyces cerevisiae
[7] = system: sst2Δ cells; assay: Growth of sst2Δ yeast in the presence of pheromone; format: cell-based, Saccharomyces cerevisiae; settings: galactose-induced production, α-factor plates
[8] = target: T2, UbcH5B (Homo sapiens, UniProt P62837); assay: In vitro removal of ubiquitin from ubiquitinated E2; format: biochemical; settings: biotinylated ubiquitin, E1, UbcH5B
T2 construct: His; made in house
Procedure: The observation that the degradation of Ste7 promoted by IpaH9.8 is proteasome-dependent led us to test in vitro if IpaH9.8 might be involved in an ubiquitination pathway. It was discovered that the E2 enzyme UbcH5B was apparently not ubiquitinated by E1 in the presence of GST-IpaH9.8 (FIG. 2B).
as §1

[9] = target: T3, ubiquitin (Homo sapiens, UniProt P0CG47); assay: In vitro autoubiquitination; format: biochemical; settings: E1, UbcH5B
T3 construct: UbcH7, E1, ubiquitin, HA-ubiquitin, biotinylated ubiquitin, ubiquitin-K48R and -K63R; purchased Boston Biochem
Procedure: The amide linkage, but not the thioesther linkage, of ubiquitin to ubiquitinated proteins is resistant to dithiothreitol (DTT).
(§3) Thus, IpaH9.8 is an E3 ubiquitin ligase for Ste7; the proteasome-dependent disappearance of Ste7 in yeast was likely due to the degradation of Ste7 following its polyubiquitination by IpaH9.8 and IpaH7.8.
as §1

[10] = target: T4, HA-tagged ubiquitin (Homo sapiens, UniProt P0CG47); assay: In vitro polyubiquitination of ubiquitin; format: biochemical; settings: HA-ubiquitin, E1, UbcH5B; anti-HA antibodies
T4 construct: multiples of the size of HA-ubiquitin (9 kDa); purchased Boston Biochem
Procedure: (§4) Ubiquitin biotinylated on Lys residues can not support polyubiquitination reactions. To test if IpaH9.8 could polyubiquitinate proteins, reactions were performed using HA-tagged ubiquitin, instead of biotinylated ubiquitin.
as §1

[11] = system: HA-tagged ubiquitin; assay: In vitro polyubiquitination of ubiquitin; format: biochemical; settings: K48R and K63R ubiquitin variants
Procedure: as §4, §1

[12] = target: T5, Ste7 (Saccharomyces cerevisiae, UniProt P06784); assay: In vitro ubiquitination of Ste7; format: biochemical; settings: Ste7, Ste11-4, Kss1 complexes, native ubiquitin, E1, UbcH5B; anti-Ste7 antibodies
T5 construct: made in house
T5 sequence (P06784 1-515): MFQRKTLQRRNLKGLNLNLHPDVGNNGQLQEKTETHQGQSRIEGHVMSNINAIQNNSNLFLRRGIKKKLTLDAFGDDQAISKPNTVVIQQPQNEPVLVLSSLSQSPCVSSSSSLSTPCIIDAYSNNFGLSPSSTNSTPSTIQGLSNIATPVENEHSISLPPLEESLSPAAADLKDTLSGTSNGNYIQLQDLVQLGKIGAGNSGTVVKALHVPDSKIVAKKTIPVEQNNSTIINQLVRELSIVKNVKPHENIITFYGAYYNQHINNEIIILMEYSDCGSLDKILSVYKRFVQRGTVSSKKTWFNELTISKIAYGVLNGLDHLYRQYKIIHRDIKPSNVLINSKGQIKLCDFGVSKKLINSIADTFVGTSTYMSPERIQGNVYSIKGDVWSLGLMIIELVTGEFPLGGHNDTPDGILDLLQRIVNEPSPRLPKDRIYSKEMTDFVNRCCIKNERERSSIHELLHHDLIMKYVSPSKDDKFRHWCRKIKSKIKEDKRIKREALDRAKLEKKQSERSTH
Procedure: as §3, §1

T1 sequence (Q16512 whole entry): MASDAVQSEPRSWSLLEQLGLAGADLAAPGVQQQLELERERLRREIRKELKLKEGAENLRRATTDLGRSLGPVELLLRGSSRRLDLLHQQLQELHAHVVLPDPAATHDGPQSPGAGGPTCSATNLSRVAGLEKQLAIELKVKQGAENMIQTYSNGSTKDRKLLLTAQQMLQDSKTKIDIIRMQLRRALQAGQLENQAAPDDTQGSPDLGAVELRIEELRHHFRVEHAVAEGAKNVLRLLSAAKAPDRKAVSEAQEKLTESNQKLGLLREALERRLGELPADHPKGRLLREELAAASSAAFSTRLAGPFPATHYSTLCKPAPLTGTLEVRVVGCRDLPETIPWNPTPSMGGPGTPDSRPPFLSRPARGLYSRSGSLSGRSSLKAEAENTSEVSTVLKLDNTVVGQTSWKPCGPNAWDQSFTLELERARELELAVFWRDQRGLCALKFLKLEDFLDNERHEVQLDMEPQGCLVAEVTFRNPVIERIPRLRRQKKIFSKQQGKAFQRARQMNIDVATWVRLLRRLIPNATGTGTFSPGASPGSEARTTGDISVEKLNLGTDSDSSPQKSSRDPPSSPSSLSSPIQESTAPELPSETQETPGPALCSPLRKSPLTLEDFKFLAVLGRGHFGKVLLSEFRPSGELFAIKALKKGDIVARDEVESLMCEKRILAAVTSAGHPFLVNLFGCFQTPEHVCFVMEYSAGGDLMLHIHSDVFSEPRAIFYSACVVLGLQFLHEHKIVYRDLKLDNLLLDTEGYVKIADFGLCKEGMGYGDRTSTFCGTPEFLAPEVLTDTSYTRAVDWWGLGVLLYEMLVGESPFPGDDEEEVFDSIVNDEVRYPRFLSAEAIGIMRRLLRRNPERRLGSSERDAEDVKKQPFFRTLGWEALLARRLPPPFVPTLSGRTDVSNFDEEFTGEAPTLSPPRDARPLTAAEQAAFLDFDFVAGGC
T2 sequence (P62837 whole entry): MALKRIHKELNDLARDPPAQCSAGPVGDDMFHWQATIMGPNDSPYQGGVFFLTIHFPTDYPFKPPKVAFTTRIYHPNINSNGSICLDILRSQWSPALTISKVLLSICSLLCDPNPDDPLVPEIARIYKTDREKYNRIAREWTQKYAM

B1: SspH1: Salmonella enterica Typhimurium homologue of IpaH, type III secretion effector; GST-SspH1 recombinant protein (protein)
chain: EFMLPINNNFSLPQNSFYNTISGTYADYFSAWDKWEKQALPGEERDEAVSRLKECLINNSDELRLDRLNLSSLPDNLPAQITLLNVSYNQLTNLPELPVTLKKLYSASNKLSELPVLPPALESLQVQHNELENLPALPDSLLTMNISYNEIVSLPSLPQALKNLRATRNFLTELPAFSEGNNPVVREYFFDRNQISHIPESILNLRNECSIHISDNPLSSHALQALQRLTSSPDYHGPRIYFSMSDGQQNTLHRPLADAVTAWFPENKQSDVSQIWHAFEHEEHANTFSAFLDRLSDTVSARNTSGFREQVAAWLEKLSASAELRQQSFAVAADATESCEDRVALTWNNLRKTLLVHQASEGLFDNDTGALLSLGREMFRLEILEDIARDKVRTLHFVDEIEVYLAFQTMLAEKLQLSTAVKEMRFYGVSGVTANDLRTAEAMVRSREENEFTDWFSLWGPWHAVLKRTEADRWAQAEEQKYEMLENEYPQRVADRLKASGLSGDADAEREAGAQVMRETEQQIYRQLTDEVLALRLFENGSQLHHS
modifications: left off: a dimerising Fc or GST
ubiquitination of PKN1 [1]: detected an additional species migrating at a size >250 kDa

B2: IpaH9.8: Shigella flexneri type III secretion effector protein (SEQ ID NO: 4), E3 ubiquitin ligase; used FLAG-tagged in yeast, GST-fused in vitro (protein, listed as Shigella flexneri)
chain: MLPINNNFSLPQNSFYNTISGTYADYFSAWDKWEKQALPGEERDEAVSRLKECLINNSDELRLDRLNLSSLPDNLPAQITLLNVSYNQLTNLPELPVTLKKLYSASNKLSELPVLPPALESLQVQHNELENLPALPDSLLTMNISYNEIVSLPSLPQALKNLRATRNFLTELPAFSEGNNPVVREYFFDRNQISHIPESILNLRNECSIHISDNPLSSHALQALQRLTSSPDYHGPRIYFSMSDGQQNTLHRPLADAVTAWFPENKQSDVSQIWHAFEHEEHANTFSAFLDRLSDTVSARNTSGFREQVAAWLEKLSASAELRQQSFAVAADATESCEDRVALTWNNLRKTLLVHQASEGLFDNDTGALLSLGREMFRLEILEDIARDKVRTLHFVDEIEVYLAFQTMLAEKLQLSTAVKEMRFYGVSGVTANDLRTAEAMVRSREENEFTDWFSLWGPWHAVLKRTEADRWAQAEEQKYEMLENEYPQRVADRLKASGLSGDADAEREAGAQVMRETEQQIYRQLTDEVLALRLSENGSQLHHS
modifications: FLAG tag or GST fusion
notes: used FLAG-tagged in yeast, GST-fused in vitro
halo of inhibited growth [2]: failed to form a halo
expression of FUS1-lacZ reporter gene [3]: failed to form a halo and to induce expression
rescue of growth arrest [4]: rescued this phenotype
His phenotype (FUS1-HIS3 reporter) [5]: His^−
disappearance of Ste7 ([6]; ubp3Δ and ste11Δ cells): still resulted in the disappearance of Ste7
amount of Ste7 ([6]; wild-type yeast, regardless of stimulation by α-factor): drastically reduced
growth of sst2Δ cells in the presence of pheromone [7]: allowed sst2Δ cells to grow in the presence of pheromone
removal of ubiquitin from ubiquitinated UbcH5B [8]: promoted the removal of ubiquitin from UbcH5B
autoubiquitination (DTT-resistant ubiquitinated protein) ([9]; biotinylated ubiquitin): a DTT-resistant ubiquitinated protein of the size of GST-IpaH9.8 (FIG. 3) was detected
autoubiquitination (anti-IpaH antibodies) ([9]; native ubiquitin, MAPK complexes): Both the non- and mono-ubiquitinated forms of IpaH9.8 were detected
polyubiquitination of HA-tagged ubiquitin [10]: detected a ladder of ubiquitinated proteins
linkage of polyubiquitin chains [11]: catalyzed the formation of polyubiquitin chains on Lys-48, but not Lys-63
ubiquitination of Ste7 [12]: larger species that formed only in the presence of IpaH9.8 were detected
